Tested on: Bacillus subtilis
Assay: cleaved RNA product abundance (RNA/gDNA barcode ratio) relative to median wild-type variant (ratio to wild type); higher = more accumulation of the downstream cleavage product
Conditions: cleavage site: cggR-gapA (positions -7 to +36 mutated)
Summary of the method: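 In LB at 37°C, B. subtilis cultures went from OD600 0.0003 to 0.3. Their chromosomes held barcoded reporter mRNAs, truncated aprE or tetM, with RNase Y cleavage-site windows mutagenized via oligos at a 9% error rate. Cleaved RNA, chosen by gel, was reverse transcribed and barcode-sequenced alongside genomic DNA barcodes with UMI collapsing, giving a per-construct RNA:gDNA ratio scaled to the median construct with the unmutated site. This scaled ratio is termed cleaved product abundance.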

[1] = experiment (reporter, strain, medium): exp 2b: truncated aprE reporter, strain BJT200
[2] = experiment (reporter, strain, medium): exp 4a: truncated aprE reporter, strain BJT201 with 2% xylose (RNase J1 expressed)
[3] = experiment (reporter, strain, medium): exp 6: tetM reporter, strain 168

Sequence | cleaved RNA product abundance [1] | cleaved RNA product abundance [2] | cleaved RNA product abundance [3]
ACAGACGAAGGAGCCGCAAAGAAGTTATTAATGGATGAATTATCCCTCAATATAAATATCTCTCACTTATTTAAA | 0.112 | 0.0827 | –
ACAGACGAAGGAGCCGCAAAGAAGTTATTAATGGATGACTAATCCCTCAATATAAATATCTCTCACTTATTTAAA | 0.0938 | 0.114 | –
ACAGACGAAGGAGCCGCAAAGAAGTTATTAATGGATGATTAATCCCTCAATATAAATATCTCTCACTTATTTAAA | – | 0.138 | –
ACAGACGAAGGAGCCGCAAAGAAGTTATTAATGGATGCATAATCCCTCAATATAAATATCTCTCACTTATTTAAA | 0.133 | 0.169 | –
ACAGACGAAGGAGCCGCAAAGAAGTTATTAATGGATGGATAATCCCTCAATATAAATATCTCTCACTTATTTAAA | – | 0.143 | –
ACAGACGAAGGAGCCGCAAAGAAGTTATTAATGGATGTATAATCCCTCAATATAAATATCTCTCACTTATTTAAA | 0.0434 | 0.211 | –
ACAGACGAAGGAGCCGCAAAGAAGTTATTAATGGATTAATAATCCCTCAATATAAATATCTCTCACTTATTTAAA | 0.149 | 0.242 | –
ACAGACGAAGGAGCCGCAAAGAAGTTATTAATGGCTGAATAATCCCTCAATATAAATATCTCTCACTTATTTAAA | 0.11 | 0.0644 | –
ACAGACGAAGGAGCCGCAAAGAAGTTATTAATGGGTGAATAATCCCTCAATATAAATATCTCTCACTTATTTAAA | – | 0.188 | –
ACAGACGAAGGAGCCGCAAAGAAGTTATTAATGGTTGAATAATCCCTCAATATAAATATCTCTCACTTATTTAAA | 0.107 | 0.121 | –
ACAGACGAAGGAGCCGCAAAGAAGTTATTAATGTATGAATAATCCCTCAATATAAATATCTCTCACTTATTTAAA | 0.101 | 0.1 | –
ACAGACGAAGGAGCCGCAAAGAAGTTATTAATTGATGAATAATCCCTCAATATAAATATCTCTCACTTATTTAAA | 0.0997 | 0.0964 | –
ACAGACGAAGGAGCCGCAAAGAAGTTATTACAGGATGAATAATCCCTCAATATAAATATCTCTCACTTATTTAAA | – | 0.165 | –
ACAGACGAAGGAGCCGCAAAGAAGTTATTACCGGATGAATAATCCCTCAATATAAATATCTCTCACTTATTTAAA | – | 0.155 | –
ACAGACGAAGGAGCCGCAAAGAAGTTATTACGAGATGAATAATCCCTCAATATAAATATCTCTCACTTATTTAAA | 0.104 | 0.113 | –
ACAGACGAAGGAGCCGCAAAGAAGTTATTACGCGATGAATAATCCCTCAATATAAATATCTCTCACTTATTTAAA | – | 0.0746 | –
ACAGACGAAGGAGCCGCAAAGAAGTTATTACGGAATGAATAATCCCTCAATATAAATATCTCTCACTTATTTAAA | 0.1 | 0.0966 | –
ACAGACGAAGGAGCCGCAAAGAAGTTATTACGGCATGAATAATCCCTCAATATAAATATCTCTCACTTATTTAAA | 0.0982 | 0.204 | –
ACAGACGAAGGAGCCGCAAAGAAGTTATTACGGGAAGAATAATCCCTCAATATAAATATCTCTCACTTATTTAAA | 0.152 | 0.322 | –
ACAGACGAAGGAGCCGCAAAGAAGTTATTACGGGATAAATAATCCCTCAATATAAATATCTCTCACTTATTTAAA | – | 0.416 | –

Sequence | cleaved RNA product abundance [1] | cleaved RNA product abundance [2] | cleaved RNA product abundance [3]
ACAGACGAAGGAGCCGCAAAGAAGTTATTACGGGATGAAAAATCCCTCAATATAAATATCTCTCACTTATTTAAA | 0.223 | 0.321 | –
ACAGACGAAGGAGCCGCAAAGAAGTTATTACGGGATGAATAAACCCTCAATATAAATATCTCTCACTTATTTAAA | – | 0.158 | –
ACAGACGAAGGAGCCGCAAAGAAGTTATTACGGGATGAATAAGCCCTCAATATAAATATCTCTCACTTATTTAAA | 0.189 | – | –
ACAGACGAAGGAGCCGCAAAGAAGTTATTACGGGATGAATAATACCTCAATATAAATATCTCTCACTTATTTAAA | – | 0.112 | –
ACAGACGAAGGAGCCGCAAAGAAGTTATTACGGGATGAATAATCACTCAATATAAATATCTCTCACTTATTTAAA | 0.108 | – | –
ACAGACGAAGGAGCCGCAAAGAAGTTATTACGGGATGAATAATCCCTAAATATAAATATCTCTCACTTATTTAAA | 0.428 | 0.394 | –
ACAGACGAAGGAGCCGCAAAGAAGTTATTACGGGATGAATAATCCCTCAATATAAATATCTCTCACTTATTTAAA | 0.32 | 0.46 | 0.453
ACAGACGAAGGAGCCGCAAAGAAGTTATTACGGGATGAATAATCCCTCAATATAAATATTTCTCACTTATTTAAA | – | 0.399 | –
ACAGACGAAGGAGCCGCAAAGAAGTTATTACGGGATGAATAATCCCTCAATATAAATCTCTCTCACTTATTTAAA | – | 0.368 | –
ACAGACGAAGGAGCCGCAAAGAAGTTATTACGGGATGAATAATCCCTCAATATAGATATCTCTCACTTATTTAAA | – | 0.351 | –
ACAGACGAAGGAGCCGCAAAGAAGTTATTACGGGATGAATAATCCCTCGATATAAATATCTCTCACTTATTTAAA | – | 0.259 | –
ACAGACGAAGGAGCCGCAAAGAAGTTATTACGGGATGAATAATCCCTTAATATAAATATCTCTCACTTATTTAAA | – | 1.47 | –
ACAGACGAAGGAGCCGCAAAGAAGTTATTACGGGATGAATAATGCCTCAATATAAATATCTCTCACTTATTTAAA | – | 0.128 | –
ACAGACGAAGGAGCCGCAAAGAAGTTATTACGGGATGAATCATCCCTCAATATAAATATCTCTCACTTATTTAAA | 0.316 | – | –
ACAGACGAAGGAGCCGCAAAGAAGTTATTACGGGATGAATGATCCCTCAATATAAATATCTCTCACTTATTTAAA | – | 0.247 | –
ACAGACGAAGGAGCCGCAAAGAAGTTATTACGGGATGATTAATCCCTCAATATAAATATCTCTCACTTATTTAAA | – | 0.204 | –
ACAGACGAAGGAGCCGCAAAGAAGTTATTACGGGTTGAATAATCCCTCAATATAAATATCTCTCACTTATTTAAA | 0.087 | 0.16 | –
ACAGACGAAGGAGCCGCAAAGAAGTTATTACGGTATGAATAATCCCTCAATATAAATATCTCTCACTTATTTAAA | – | 0.141 | –
ACAGACGAAGGAGCCGCAAAGAAGTTATTACGTGATGAATAATCCCTCAATATAAATATCTCTCACTTATTTAAA | 0.0928 | 0.113 | –
ACAGACGAAGGAGCCGCAAAGAAGTTATTACTGGATGAATAATCCCTCAATATAAATATCTCTCACTTATTTAAA | – | 0.199 | –

Sequence | cleaved RNA product abundance [1] | cleaved RNA product abundance [2] | cleaved RNA product abundance [3]
ACAGACGAAGGAGCCGCAAAGAAGTTATTAGAGGATGAATAATCCCTCAATATAAATATCTCTCACTTATTTAAA | – | 0.301 | –
ACAGACGAAGGAGCCGCAAAGAAGTTATTAGGAGATGAATAATCCCTCAATATAAATATCTCTCACTTATTTAAA | – | 0.24 | –
ACAGACGAAGGAGCCGCAAAGAAGTTATTAGGGCATGAATAATCCCTCAATATAAATATCTCTCACTTATTTAAA | – | 0.132 | –
ACAGACGAAGGAGCCGCAAAGAAGTTATTAGGGGAAGAATAATCCCTCAATATAAATATCTCTCACTTATTTAAA | 0.278 | – | –
ACAGACGAAGGAGCCGCAAAGAAGTTATTAGGGGATGAATAATACCTCAATATAAATATCTCTCACTTATTTAAA | – | 0.211 | –
ACAGACGAAGGAGCCGCAAAGAAGTTATTAGGGGATGAATAATCACTCAATATAAATATCTCTCACTTATTTAAA | 0.114 | 0.112 | –
ACAGACGAAGGAGCCGCAAAGAAGTTATTAGGGGATGAATAATCCCTCAAAATAAATATCTCTCACTTATTTAAA | 0.351 | 0.476 | –
ACAGACGAAGGAGCCGCAAAGAAGTTATTAGGGGATGAATAATCCCTCAATATAAATATCTCTCACTTATTTAAA | 0.699 | 0.718 | 0.377
ACAGACGAAGGAGCCGCAAAGAAGTTATTAGGGGATGAATAATCCCTGAATATAAATATCTCTCACTTATTTAAA | – | 0.371 | –
ACAGACGAAGGAGCCGCAAAGAAGTTATTAGGGGATGAATAATCCCTTAATATAAATATCTCTCACTTATTTAAA | – | 0.808 | –
ACAGACGAAGGAGCCGCAAAGAAGTTATTAGGGGATGAATAATCCTTCAATATAAATATCTCTCACTTATTTAAA | – | 0.636 | –
ACAGACGAAGGAGCCGCAAAGAAGTTATTAGGGGATGACTAATCCCTCAATATAAATATCTCTCACTTATTTAAA | – | 0.63 | –
ACAGACGAAGGAGCCGCAAAGAAGTTATTAGGGGATGGATAATCCCTCAATATAAATATCTCTCACTTATTTAAA | 0.481 | 0.709 | –
ACAGACGAAGGAGCCGCAAAGAAGTTATTAGGGGATTAATAATCCCTCAATATAAATATCTCTCACTTATTTAAA | – | 0.866 | –
ACAGACGAAGGAGCCGCAAAGAAGTTATTAGGGGTTGAATAATCCCTCAATATAAATATCTCTCACTTATTTAAA | – | 0.254 | –
ACAGACGAAGGAGCCGCAAAGAAGTTATTAGGGTATGAATAATCCCTCAATATAAATATCTCTCACTTATTTAAA | – | 0.361 | –
ACAGACGAAGGAGCCGCAAAGAAGTTATTAGGTGATGAATAATCCCTCAATATAAATATCTCTCACTTATTTAAA | – | 0.331 | –
ACAGACGAAGGAGCCGCAAAGAAGTTATTAGTGGATGAATAATCCCTCAATATAAATATCTCTCACTTATTTAAA | 0.295 | 0.385 | –
ACAGACGAAGGAGCCGCAAAGAAGTTATTATAGGATGAATAATCCCTCAATATAAATATCTCTCACTTATTTAAA | 0.149 | 0.203 | –

— the supplement of paper PMC11780869
